The numbers were not newly measured in paper PMC9190259, which cites them from elsewhere.

In the data set the target is TNFα (Homo sapiens) (UniProt P01375).
Sequence of UniProt P01375 (P01375 77-233): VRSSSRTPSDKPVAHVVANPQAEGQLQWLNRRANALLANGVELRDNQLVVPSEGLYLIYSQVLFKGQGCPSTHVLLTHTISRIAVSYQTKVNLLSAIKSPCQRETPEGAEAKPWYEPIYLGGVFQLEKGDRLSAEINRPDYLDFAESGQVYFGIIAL

The term Kd denotes the free concentration of one partner at which half of the binding sites on the other are occupied at equilibrium, for simple one-to-one binding. With Certolizumab Fab, the Kd is 0.09 nM.
